The results in this text go back to patent US20110044985A1 (RINAT NEUROSCIENCE, published 2011).

Where a chain is given by its changes, count along the chain named. Numbers in names are those of the source. No end group written: not given here.

Test [1] addresses T1, Biotinylated Aβ peptide with amino acids 26-35 and a glycine at the C-terminus (also: biotinylated (position not given here)).
T1 peptide: SNKGAIIGLMG
Kind of test: ELISA, biotinylated peptide on streptavidin-coated plate, goat anti-human kappa HRP. The method, then: (§1) Various Aβ peptides (assigned SEQ ID NO:18-26, 31, and 27-29 from top to bottom sequences) were immobilized on ELISA plates. Antibodies were incubated for 1 hour with various immobilized peptides. Antibody 6G bound to immobilized Aβ peptides were measured using goat anti-human kappa HRP conjugated secondary antibody. […] “NB” refers to no binding detected.
(§2) ELISA was used for measuring binding of antibody 6G and variants to biotinylated Aβ peptides. NUNC maxisorp plates were coated with 6 ug/ml of streptavidin (Pierce, 21122) in PBS pH 7.4 for more than 1 h at 4° C. Plates were blocked with 1% BSA in PBS buffer pH 7.4. After washing, biotinylated Aβ peptides in PBS pH 7.4 were incubated 1 hour at room temperature. Primary antibody (from cell supernatants, serum containing anti-Aβ antibody, or purified full antibody or Fabs at desired dilution) was incubated with the immobilized Aβ peptides for 1 h at room temperature. After washing, plates were incubated with secondary antibody, a HRP conjugated goat anti-human kappa chain antibody (MP Biomedicals, 55233) at 1:5000 dilution. After washing, bound secondary antibody was measured by adding TMB substrate (KPL, 50-76-02, 50-65-02). HRP reaction was stopped by adding 1M phosphoric acid and absorbance at 450 nm was measured.

For test [2], the target named is T2, Biotinylated Aβ peptide with amino acids 24-33 and a glycine at the C-terminus (also: biotinylated (position not given here)).
T2 peptide: VGSNKGAIIGG
The description is as above. As for the experimental part:
as §1, §2

For test [3], the target named is T3, Biotinylated Aβ peptide with amino acids 27-41 and a glycine at the C-terminus (also: biotinylated (position not given here)).
T3 peptide: NKGAIIGLMVGGVVIG
The test is described as above. The method, then: as §1, §2

In a further test the target is T4, 28 KGAIIGLMVGGVVIAG (also: biotinylated (position not given here)).
T4 construct: It differs from m21 (Aβ peptide 28-42, not biotinylated, no added glycine); also called Biotinylated Aβ peptide with amino acids 28-42 and a glycine at the C-terminus; 28-42 15-mer
T4 peptide: KGAIIGLMVGGVVIAG
The test is described as above. As for the experimental part: as §1, §2

For test [4], the target named is T5, Biotinylated Aβ peptide with amino acids 19-33 and a glycine at the C-terminus (also: biotinylated (position not given here)).
T5 peptide: FFAEDVGSNKGAIIGG
Described as above. The method, then:
as §1, §2

Test [5] deals with T6, Biotinylated Aβ peptide with amino acids 26-40 and a glycine at the C-terminus (also: biotinylated (position not given here)).
T6 peptide: SNKGAIIGLMVGGVVG
The description is as above. As for the experimental part: as §1, §2

Another test has as its target T7, Aβ1-42.
T7 construct: also called 1-42 (WT); Aβ peptide 1-42
The test can be described thus: ELISA, nonbiotinylated peptide on plate. As for the experimental part: (§3) ELISA was used for measuring binding of antibody 6G and variants to nonbiotinylated Aβ peptides. NUNC maxisorp plates were coated with 2.5 ug/ml of Aβ peptides in PBS pH 7.4 for more than 1 hour at 4° C. Plates were blocked with 1% BSA in PBS buffer pH 7.4. Primary antibody (from cell supernatants, serum containing anti-Aβ antibody, or purified full antibody or Fabs at desired dilution) was incubated with the immobilized Aβ peptides for 1 h at room temperature. After washing, the plates were incubated with secondary antibody, a HRP conjugated goat anti-human kappa chain antibody (MP Biomedicals, 55233) at 1:5000 dilution. After washing, bound secondary antibody was measured by adding TMB substrate (KPL, 50-76-02, 50-65-02). The HRP reaction was stopped by adding 1M phosphoric acid and absorbance at 450 nm was measured.
(§4) All amino acid substitutions of the variants shown in Table 3 are described relative to the sequence of 6G. Binding was determined by ELISA described above with nonbiotinylated Aβ₁₋₄₀ or Aβ₁₋₄₂ immobilized on the surface of an ELISA plate.
For orientation: ELISA stands for enzyme-linked immunosorbent assay.

The next test concerns the target T8, Aβ1-40.
T8 construct: also called 1-40 (WT); Aβ peptide 1-40
The test can be described thus: ELISA, nonbiotinylated peptide on plate. The method, then: as §3, §4

T7 sequence (peptide, as listed by the source): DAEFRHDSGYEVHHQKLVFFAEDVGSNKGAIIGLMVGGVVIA
T8 sequence (peptide, as listed by the source): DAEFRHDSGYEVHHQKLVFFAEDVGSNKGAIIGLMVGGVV

B1: antibody 6G (antibody, V domains shown)
VH: QVQLVQSGAEVKKPGASVKVSCKASGYTFTTYAIHWVRQAPGQGLEWMGFTSPYSGVSNYNQKFKGRVTMTRDTSTSTVYMELSSLRSEDTAVYYCARFDNYDRGYVRDYWGQGTLVTVSS
VL: DIVMTQSPDSLAVSLGERATINCRASESVDNDRISFLNWYQQKPGQPPKLLIYAATKQGTGVPDRFSGSGSGTDFTLTISSLQAEDVAVYYCQQSKEFPWSFGGGTKVEIKR
notes: Full antibody; human IgG2a constant region with A330P331 to S330S331, human kappa; also called 6G monoclonal antibody; 6G full antibody
Regarding B1, the binding result (in test [1]; in test [2]; in test [3]; with 28 KGAIIGLMVGGVVIAG; in test [4]; in test [5]) was “no binding (tested: 10 ug/ml)” throughout.

B2: 6G light chain mutant variant 6E (E97P) (antibody, V domains shown)
VH: QVQLVQSGAEVKKPGASVKVSCKASGYTFTTYAIHWVRQAPGQGLEWMGFTSPYSGVSNYNQKFKGRVTMTRDTSTSTVYMELSSLRSEDTAVYYCARFDNYDRGYVRDYWGQGTLVTVS
VL: B1 VL with E97P
For B2, the “A450 ELISA” value in the test with Aβ1-42 is 0.2 A450.

B3: 6G heavy chain mutant variant 8H (N101H) (antibody, V domains shown)
VH: B2 VH with N101H
VL: B1 VL
Take B3: the “A450 ELISA” value in the test with Aβ1-40 is 0.21 A450.

B4: 6G light chain mutant variant 7F (Q94K) (antibody, V domains shown)
VH: B2 VH
VL: B1 VL with Q94K
On to B4, for which, in the test with Aβ1-42, the “A450 ELISA” value came out at 0.19 A450.

B5: 6G light chain mutant variant 7E (Q94R) (antibody, V domains shown)
VH: B2 VH
VL: B1 VL with Q94R
B5: the “A450 ELISA” value with Aβ1-42 was 0.18 A450.

B6: 6G heavy chain mutant variant 7D (N101C) (antibody, V domains shown)
VH: B2 VH with N101C
VL: B1 VL
With B6, the “A450 ELISA” value with Aβ1-42 came out at 0.31 A450.

B7: 6G light chain mutant variant 5B (Q94G) (antibody, V domains shown)
VH: B2 VH
VL: B1 VL with Q94G
Regarding B7, the “A450 ELISA” value in the test with Aβ1-42 worked out at 0.14 A450.

B8: 6G light chain mutant variant 10E (S95L) (antibody, V domains shown)
VH: B2 VH
VL: B1 VL with S95L
For the molecule B8, the “A450 ELISA” value in the test with Aβ1-42 came to 0.12 A450.
